Source: patent US20240301059A1 (PIONYR IMMUNOTHERAPEUTICS, published 2024)

Tests used:
[1] = target: T1, mouse TREM2 on Expi 293 cells (mouse, UniProt Q99NH8 19-227); assay: flow cytometry on Expi 293 cells over-expressing mouse TREM2; Alexa Fluor 647 anti-Fc secondary
T1 construct: also called Expi-mTREM2; mTREM2
T1 sequence: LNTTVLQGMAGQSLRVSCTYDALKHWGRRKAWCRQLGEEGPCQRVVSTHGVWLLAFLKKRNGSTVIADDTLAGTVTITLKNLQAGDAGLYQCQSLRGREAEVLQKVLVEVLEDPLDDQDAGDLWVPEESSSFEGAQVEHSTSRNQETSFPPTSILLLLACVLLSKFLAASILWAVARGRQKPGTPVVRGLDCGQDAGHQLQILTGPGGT
Procedure: (§1) 100,000 to 500,000 Expi 293 parental cells or Expi 293 cells over-expressing human or mouse TREM2 were plated in 96 well plates and dead cells were stained with Zombie Near Infrared (Biolegend). Titrations of indicated unconjugated antibodies were incubated with these cells within a range of 0 ug/ml to 10 ug/ml in a 1:3 dilution range across 8-10 points. Dependent on their isotype (hIgG1 or mIgG2a), these primary unconjugated antibodies were detected with Alexa Fluor 647 conjugated anti-human Fc or anti-mouse Fc secondary antibodies (Jackson Immunoresearch). Alexa Fluor 647 signal was measured by flow cytometry (BD Fortessa X-14, BD Biosciences). EC50 values were calculated by curve fitting signal generated from antibodies binding to over-expressing cells over background fluorescence generated from HEK293 parental cells in Graphpad Prism (Graphpad Software).

[2] = target: T2, TREM2 human IgG1 Fc fusion protein (human, UniProt Q9NZC2 19-174, limits assumed); assay: SPR, Biacore T200; TREM2-Fc amine-coupled to CM5 chip, antibody injected; 1:1 Langmuir fit
T2 construct: In-house, SEC purified to >95% purity; also called human TREM2-Fc; not shown: human IgG1 Fc
T2 sequence: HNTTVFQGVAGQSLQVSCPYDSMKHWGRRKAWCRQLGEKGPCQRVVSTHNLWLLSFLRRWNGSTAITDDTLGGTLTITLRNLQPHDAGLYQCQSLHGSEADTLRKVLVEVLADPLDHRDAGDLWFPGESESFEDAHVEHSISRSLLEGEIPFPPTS
Procedure: (§2) Binding kinetics were determined by surface plasmon resonance using a Biacore T200 (GE Healthcare, UK) with human TREM2 His (Sino Biological, Beijing, P.R.China) or […] captured on Series S CM5 chips through anti-His capture or TREM2 human IgG1 Fc fusion protein (in-house SEC purified to >95% purity) directly immobilized to chips by amine coupling. Serial dilutions of indicated antibodies were injected at 30 ul/minute for 2 minutes. PBS or system buffer was then injected at 30 ul/minute for 400 seconds to observe dissociation. Binding responses were corrected by subtraction of responses on a blank flow cell. For kinetic analysis, a 1:1 Langmuir model of global fittings of kₒₙ and koff values, was used. The Kd values were determined from the ratios of kₒₙ and koff.

[3] = target: T3, human TREM2 on Expi 293 cells (human, UniProt Q9NZC2 19-230); assay: flow cytometry on Expi 293 cells over-expressing human TREM2; Alexa Fluor 647 anti-Fc secondary
T3 construct: also called Expi-hTREM2; hTREM2
T3 sequence: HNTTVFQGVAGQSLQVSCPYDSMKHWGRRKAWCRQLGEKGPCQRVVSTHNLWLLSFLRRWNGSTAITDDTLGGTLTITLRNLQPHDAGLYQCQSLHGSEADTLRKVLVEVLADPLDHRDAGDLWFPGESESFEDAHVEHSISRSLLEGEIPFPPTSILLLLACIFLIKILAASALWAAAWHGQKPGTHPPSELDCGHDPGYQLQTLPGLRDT
Procedure: as §1

[4] = target: T4, human TREM2 His (Sino Biological) (human, UniProt Q9NZC2 19-174); assay: SPR, Biacore T200; TREM2-His captured on CM5 chip by anti-His, antibody injected; 1:1 Langmuir fit
T4 construct: Bought reagent; the soluble reagent is probably only the extracellular part; not shown: His tag
T4 sequence: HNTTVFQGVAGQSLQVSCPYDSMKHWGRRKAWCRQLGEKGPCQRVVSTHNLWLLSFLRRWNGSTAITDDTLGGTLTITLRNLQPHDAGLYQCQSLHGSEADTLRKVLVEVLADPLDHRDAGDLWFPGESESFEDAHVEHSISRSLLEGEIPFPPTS
Procedure: as §2

Binder	EC50 [1]	Kd [2]	koff [2]	kon [2]	EC50 [3]	Kd [4]	koff [4]	kon [4]
PI37012 (antibody, human IgG1, kappa, V domains shown, Humanized anti-TREM2 antibody, human IgG1, produced in HEK293; also called 37012 antibody; PI37012 anti-TREM2 mAb) VH: EVQLLESGGGLVQPGGSLRLSCAASGFTFSNYYMAWVRQAPGKGLEWVSSLTNSGGSTYYADSVKGRFTISRDNSKNTLYLQMNSLRAEDTAVYYCTREWAGSGYFDYWGQGTLVTVSS VL: DIQMTQSPSSLSASVGDRVTITCKASQNVGNNLAWYQQKPGKAPKLLIYYTSNRFTGVPSRFSGSGSGTDFTLTISSLQPEDFATYYCQRIYNSPWTFGQGTKLEIKR	0.5 nM							
PI37013 (antibody, human IgG1, kappa, V domains shown, Humanized anti-TREM2 antibody, human IgG1) VH: EVQLLESGGGLVQPGGSLRLSCAASGFTFSNYYMAWVRQAPGKGLEWVSSLTNSGGSTYYADSVKGRFTISRDNSKNTLYLQMNSLRAEDTAVYYCTREWAGSGYFDYWGQGTLVTVSS VL: DIQMTQSPSSLSASVGDRVTMTCKASQNVGNNLAWYQQKPGKAPKLLLYYTSNRFTGVPSRFSGSGSGTDFTLTISSVQPEDFATYYCQRIYNSPWTFGQGTKLELKR	1.2 nM	1.72 nM	0.000888 s⁻¹	517000 M⁻¹ s⁻¹	1.4 nM	4.82 nM	0.00549 s⁻¹	1.14e+06 M⁻¹ s⁻¹
PI37014 (antibody, human IgG1, kappa, V domains shown, Humanized anti-TREM2 antibody, human IgG1) VH: EVQLLESGGGLVQPGGSLRLSCAASGFTFSNYYMAWVRQAPGKGLEWVASLTNSGGSTYYADSVKGRFTLSRDNSKNTLYLQMNSLRAEDTAVYYCTREWAGSGYFDYWGQGTLVTVSS VL: DIQMTQSPSSLSASVGDRVTITCKASQNVGNNLAWYQQKPGKAPKLLIYYTSNRFTGVPSRFSGSGSGTDFTLTISSLQPEDFATYYCQRIYNSPWTFGQGTKLEIKR		1.55 nM	0.000732 s⁻¹	471000 M⁻¹ s⁻¹	1.4 nM	4.74 nM	0.00243 s⁻¹	511000 M⁻¹ s⁻¹
PI37017 (antibody, human IgG1, kappa, V domains shown, Parent humanized clone, human IgG1; also called 37017 antibody) VH: EVQLLESGGGLVQPGGSLRLSCAASGFTFSNYYMAWVRQAPGKGLEWVSSLTNSGGSTYYADSVKGRFTISRDNSKNTLYLQMNSLRAEDTAVYYCAKEWAGSGYFDYWGQGTLVTVSS VL: DIQMTQSPSSLSASVGDRVTITCKASQNVGNNLAWYQQKPGKAPKLLIYYTSNRFTGVPSRFSGSGSGTDFTLTISSLQPEDFATYYCQRIYNSPWTFGQGTKLEIKR	3.6 nM	18 nM	0.00614 s⁻¹	340000 M⁻¹ s⁻¹	23.3 nM			
